Data: patent US20240182585A1

Target: His-tagged human GFRAL (recombinant soluble GFRAL protein, R&D catalogue no. 9647-GR-050) (human) (UniProt Q6UXV0)
Test: SPR sandwich assay: row antibody captured via anti-Fc, GFRAL antigen added, then mAbQ injected as analyte (competitor: mAb Q)

Chain of His-tagged human GFRAL (recombinant soluble GFRAL protein, R&D catalogue no. 9647-GR-050) (human) (Q6UXV0 19-351): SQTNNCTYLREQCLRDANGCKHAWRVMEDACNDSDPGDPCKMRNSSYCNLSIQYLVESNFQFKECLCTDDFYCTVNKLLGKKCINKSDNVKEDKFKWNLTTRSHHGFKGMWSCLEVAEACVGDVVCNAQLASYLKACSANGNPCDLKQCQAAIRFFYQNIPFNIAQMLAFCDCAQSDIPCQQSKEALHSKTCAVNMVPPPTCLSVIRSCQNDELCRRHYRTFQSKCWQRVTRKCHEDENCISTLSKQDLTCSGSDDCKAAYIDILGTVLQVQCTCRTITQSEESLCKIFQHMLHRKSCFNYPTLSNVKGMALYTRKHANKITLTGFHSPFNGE

Substance: IgG4PE (negative control) (antibody)
- resonance units after mAbQ injection (resonance units): 4
